These results are taken from paper PMC10119312, “Structural insights into RNase J that plays an essential role in Mycobacterium tuberculosis RNA metabolism” (Nature Communications, 2023).

Series [1] addresses T1, Mtb-RNase J D85A (catalytically inactive) (Mycobacterium tuberculosis H37Rv, UniProt P9WGZ9 1-558, D85A).
T1 sequence: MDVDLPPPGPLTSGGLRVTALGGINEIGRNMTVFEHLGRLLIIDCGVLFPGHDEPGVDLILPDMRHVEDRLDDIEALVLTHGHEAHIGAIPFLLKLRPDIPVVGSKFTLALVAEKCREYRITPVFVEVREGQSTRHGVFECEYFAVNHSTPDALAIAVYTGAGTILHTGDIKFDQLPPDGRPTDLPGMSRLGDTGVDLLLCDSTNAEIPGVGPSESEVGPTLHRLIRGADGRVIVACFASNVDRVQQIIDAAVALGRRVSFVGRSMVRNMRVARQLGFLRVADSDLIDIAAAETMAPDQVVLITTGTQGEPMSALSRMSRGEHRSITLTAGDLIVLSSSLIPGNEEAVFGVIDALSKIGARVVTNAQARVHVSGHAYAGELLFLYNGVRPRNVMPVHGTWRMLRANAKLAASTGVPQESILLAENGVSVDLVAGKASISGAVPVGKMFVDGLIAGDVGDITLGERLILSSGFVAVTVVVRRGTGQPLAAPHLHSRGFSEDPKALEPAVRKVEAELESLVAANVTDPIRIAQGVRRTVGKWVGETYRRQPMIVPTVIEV
The series can be described thus: EMSA. The settings on record: protein: recombinant; tags: N-terminal 6xHis-SUMO, removed by ULP1; chain copies: 2; label: 5'-FAM; single strand.

The series “crystal structure” deals with the molecule itself. Kind of series: crystal structure.
For the next series, the target named is T2, Mtb-RNase J 1-375/D85A (Mycobacterium tuberculosis H37Rv, UniProt P9WGZ9 1-375, D85A).
T2 sequence: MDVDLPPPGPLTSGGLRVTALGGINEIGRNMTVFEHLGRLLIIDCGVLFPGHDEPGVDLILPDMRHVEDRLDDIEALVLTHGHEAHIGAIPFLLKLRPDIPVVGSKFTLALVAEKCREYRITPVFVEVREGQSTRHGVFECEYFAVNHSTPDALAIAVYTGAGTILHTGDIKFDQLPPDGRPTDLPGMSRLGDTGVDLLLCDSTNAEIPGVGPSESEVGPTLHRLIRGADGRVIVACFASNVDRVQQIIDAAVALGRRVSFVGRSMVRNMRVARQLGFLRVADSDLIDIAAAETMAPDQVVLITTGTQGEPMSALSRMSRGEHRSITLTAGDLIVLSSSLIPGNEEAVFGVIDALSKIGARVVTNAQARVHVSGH
The series can be described thus: EMSA; 0.5 uM RNA; binding abolished. The settings on record: protein: recombinant; tags: N-terminal 6xHis-SUMO, removed by ULP1; single strand. Background: Mobility shift assays separate free from complexed probe on a gel.

The series “SEC” deals with the molecule itself. The series can be described thus: SEC. On the technique in general: In gel filtration, larger molecules generally elute earlier.
For series [2], the target named is T1, Mtb-RNase J D85A (catalytically …). Kind of series: X-ray crystal structure. The settings on record: protein: recombinant; tags: N-terminal 6xHis-SUMO, removed by ULP1; chain copies: 2; single strand.

B1: 9-nt poly(A) RNA (ssRNA)
RNA: AAAAAAAAA
For B1, in series [1], the binding result is listed as “binds”.

B2: Mtb-RNase J (D85A), catalytically inactive mutant (enzyme)
chain: MDVDLPPPGPLTSGGLRVTALGGINEIGRNMTVFEHLGRLLIIDCGVLFPGHDEPGVDLILPDMRHVEDRLDDIEALVLTHGHEAHIGAIPFLLKLRPDIPVVGSKFTLALVAEKCREYRITPVFVEVREGQSTRHGVFECEYFAVNHSTPDALAIAVYTGAGTILHTGDIKFDQLPPDGRPTDLPGMSRLGDTGVDLLLCDSTNAEIPGVGPSESEVGPTLHRLIRGADGRVIVACFASNVDRVQQIIDAAVALGRRVSFVGRSMVRNMRVARQLGFLRVADSDLIDIAAAETMAPDQVVLITTGTQGEPMSALSRMSRGEHRSITLTAGDLIVLSSSLIPGNEEAVFGVIDALSKIGARVVTNAQARVHVSGHAYAGELLFLYNGVRPRNVMPVHGTWRMLRANAKLAASTGVPQESILLAENGVSVDLVAGKASISGAVPVGKMFVDGLIAGDVGDITLGERLILSSGFVAVTVVVRRGTGQPLAAPHLHSRGFSEDPKALEPAVRKVEAELESLVAANVTDPIRIAQGVRRTVGKWVGETYRRQPMIVPTVIEV
notes: also called Mtb-RNase J D85A mutant; Mtb-RNase J/ssRNA (in complex with poly(A) ssRNA); not shown: 6xHis-sumo, N-terminal, cleaved
For the molecule B2, the “stoichiometry N” value in “crystal structure” is 2.

B3: 20-nt RNA (called poly(U) in legends; Methods print a mixed sequence) (ssRNA)
RNA: UUCCGUUUAUUCAUACUUCA
Consider B3, for which, in the series with Mtb-RNase J 1-375/D85A, the binding result was “no binding”.

B4: Mtb-RNase J truncated mutant 1-470 (domain or fragment)
chain: MDVDLPPPGPLTSGGLRVTALGGINEIGRNMTVFEHLGRLLIIDCGVLFPGHDEPGVDLILPDMRHVEDRLDDIEALVLTHGHEDHIGAIPFLLKLRPDIPVVGSKFTLALVAEKCREYRITPVFVEVREGQSTRHGVFECEYFAVNHSTPDALAIAVYTGAGTILHTGDIKFDQLPPDGRPTDLPGMSRLGDTGVDLLLCDSTNAEIPGVGPSESEVGPTLHRLIRGADGRVIVACFASNVDRVQQIIDAAVALGRRVSFVGRSMVRNMRVARQLGFLRVADSDLIDIAAAETMAPDQVVLITTGTQGEPMSALSRMSRGEHRSITLTAGDLIVLSSSLIPGNEEAVFGVIDALSKIGARVVTNAQARVHVSGHAYAGELLFLYNGVRPRNVMPVHGTWRMLRANAKLAASTGVPQESILLAENGVSVDLVAGKASISGAVPVGKMFVDGLIAGDVGDITLGERLILSS
notes: also called C-terminal truncation (1–470); C-terminal domain-depletion protein (1-470); not shown: 6xHis-sumo, N-terminal, cleaved
On to B4, for which, in “SEC”, the “stoichiometry N” value is 2.

B5: 7-nt poly(A) ssRNA (ssRNA)
RNA: AAAAAAA
With B5, in series [2], the binding result is on record as “binds”.

B6: Mtb-RNase J truncated mutant 1-450 (domain or fragment)
chain: MDVDLPPPGPLTSGGLRVTALGGINEIGRNMTVFEHLGRLLIIDCGVLFPGHDEPGVDLILPDMRHVEDRLDDIEALVLTHGHEDHIGAIPFLLKLRPDIPVVGSKFTLALVAEKCREYRITPVFVEVREGQSTRHGVFECEYFAVNHSTPDALAIAVYTGAGTILHTGDIKFDQLPPDGRPTDLPGMSRLGDTGVDLLLCDSTNAEIPGVGPSESEVGPTLHRLIRGADGRVIVACFASNVDRVQQIIDAAVALGRRVSFVGRSMVRNMRVARQLGFLRVADSDLIDIAAAETMAPDQVVLITTGTQGEPMSALSRMSRGEHRSITLTAGDLIVLSSSLIPGNEEAVFGVIDALSKIGARVVTNAQARVHVSGHAYAGELLFLYNGVRPRNVMPVHGTWRMLRANAKLAASTGVPQESILLAENGVSVDLVAGKASISGAVPVGKMFVD
notes: also called truncated protein (1–450); not shown: 6xHis-sumo, N-terminal, cleaved
In the case of B6, the “stoichiometry N” value in the series “SEC” was 2.

For orientation: stoichiometry N means a count of units in the complex or per binding partner.
